The source of these data is patent publication US20250161472A1 (BIOATLA, published 2025).

B1: LC-G049C (antibody, V domains shown)
VH: EVQLQQSGPELVKPGASVKISCKTSGYTFTEYTMHWMKQSHRKSLEWIGGINTNNGGTGYNQKFKGKATLTVDKSSSTAYMELRSLTSEDSAVYFCARGSLYSYGNSYFDYWGQGTLVTVSS
VL: QIVLTQSPAIMSASPGEKVTITCSATSSVSYMHWFQQKPGTSPKLWIYCTSNLASGVPARFSGSGSGTSYSLTISRMEAEDAATYYCQQRSSYPFTFGQGTKVEIK
notes: CPE single point mutant of parent VL 48.6-LC-WT
B2: LC-R090H (antibody, V domains shown)
VH: B1 VH
VL: B1 VL with C49G, R90H
notes: as for B1
B3: LC-Q089E (antibody, V domains shown)
VH: B1 VH
VL: B1 VL with C49G, Q89E
notes: as for B1
B4: LC-H033G (antibody, V domains shown)
VH: B1 VH
VL: B1 VL with H33G, C49G
notes: as for B1
B5: LC-G049P (antibody, V domains shown)
VH: B1 VH
VL: B1 VL with C49P
notes: as for B1
B6: LC-G049H (antibody, V domains shown)
VH: B1 VH
VL: B1 VL with C49H
notes: as for B1
B7: LC-H033L (antibody, V domains shown)
VH: B1 VH
VL: B1 VL with H33L, C49G
notes: as for B1
B8: LC-F097E (antibody, V domains shown)
VH: B1 VH
VL: B1 VL with C49G, F97E
notes: as for B1
B9: HC-A097I (antibody, V domains shown)
VH: B1 VH with A97I
VL: B1 VL with C49G
notes: CPE single point mutant of parent VH 48.6-HC-WT
B10: HC-M034D (antibody, V domains shown)
VH: B1 VH with M34D
VL: B1 VL with C49G
notes: as for B9
B11: HC-A097M (antibody, V domains shown)
VH: B1 VH with A97M
VL: B1 VL with C49G
notes: as for B9
B12: HC-T033C (antibody, V domains shown)
VH: B1 VH with T33C
VL: B1 VL with C49G
notes: as for B9
B13: HC-M034Y (antibody, V domains shown)
VH: B1 VH with M34Y
VL: B1 VL with C49G
notes: as for B9
B14: HC-R098H (antibody, V domains shown)
VH: B1 VH with R98H
VL: B1 VL with C49G
notes: as for B9
B15: HC-D110L (antibody, V domains shown)
VH: B1 VH with D110L
VL: B1 VL with C49G
notes: as for B9
B16: HC-A097S (antibody, V domains shown)
VH: B1 VH with A97S
VL: B1 VL with C49G
notes: as for B9
B17: HC-S103G (antibody, V domains shown)
VH: B1 VH with S103G
VL: B1 VL with C49G
notes: as for B9
B18: HC-M034E (antibody, V domains shown)
VH: B1 VH with M34E
VL: B1 VL with C49G
notes: as for B9
B19: HC-G099E (antibody, V domains shown)
VH: B1 VH with G99E
VL: B1 VL with C49G
notes: as for B9
B20: HC-W112L (antibody, V domains shown)
VH: B1 VH with W112L
VL: B1 VL with C49G
notes: as for B9
B21: HC-L101F (antibody, V domains shown)
VH: B1 VH with L101F
VL: B1 VL with C49G
notes: as for B9
B22: HC-Y032D (antibody, V domains shown)
VH: B1 VH with Y32D
VL: B1 VL with C49G
notes: as for B9
B23: HC-N052C (antibody, V domains shown)
VH: B1 VH with N52C
VL: B1 VL with C49G
notes: as for B9
B24: HC-Y111C (antibody, V domains shown)
VH: B1 VH with Y111C
VL: B1 VL with C49G
notes: as for B9
B25: HC-N052L (antibody, V domains shown)
VH: B1 VH with N52L
VL: B1 VL with C49G
notes: as for B9
B26: HC-G105D (antibody, V domains shown)
VH: B1 VH with G105D
VL: B1 VL with C49G
notes: as for B9
B27: HC-F029E (antibody, V domains shown)
VH: B1 VH with F29E
VL: B1 VL with C49G
notes: as for B9
B28: HC-I051E (antibody, V domains shown)
VH: B1 VH with I51E
VL: B1 VL with C49G
notes: as for B9
B29: HC-T053E (antibody, V domains shown)
VH: B1 VH with T53E
VL: B1 VL with C49G
notes: as for B9
B30: HC-N052V (antibody, V domains shown)
VH: B1 VH with N52V
VL: B1 VL with C49G
notes: as for B9
B31: HC-R098Q (antibody, V domains shown)
VH: B1 VH with R98Q
VL: B1 VL with C49G
notes: as for B9
B32: HC-G050S (antibody, V domains shown)
VH: B1 VH with G50S
VL: B1 VL with C49G
notes: as for B9
B33: HC-A097T (antibody, V domains shown)
VH: B1 VH with A97T
VL: B1 VL with C49G
notes: as for B9
B34: HC-Y111T (antibody, V domains shown)
VH: B1 VH with Y111T
VL: B1 VL with C49G
notes: as for B9
B35: HC-T053D (antibody, V domains shown)
VH: B1 VH with T53D
VL: B1 VL with C49G
notes: as for B9

Changes are numbered by the printed parent chain.

One assay deals with T1, human ROR2 (receptor tyrosine kinase-like orphan receptor 2) (human, UniProt Q01974 34-403, limits assumed).
T1 construct: Antigen of the ELISA, SPR and pH titration assays; also called hROR2
T1 sequence (Q01974 34-403 limits assumed): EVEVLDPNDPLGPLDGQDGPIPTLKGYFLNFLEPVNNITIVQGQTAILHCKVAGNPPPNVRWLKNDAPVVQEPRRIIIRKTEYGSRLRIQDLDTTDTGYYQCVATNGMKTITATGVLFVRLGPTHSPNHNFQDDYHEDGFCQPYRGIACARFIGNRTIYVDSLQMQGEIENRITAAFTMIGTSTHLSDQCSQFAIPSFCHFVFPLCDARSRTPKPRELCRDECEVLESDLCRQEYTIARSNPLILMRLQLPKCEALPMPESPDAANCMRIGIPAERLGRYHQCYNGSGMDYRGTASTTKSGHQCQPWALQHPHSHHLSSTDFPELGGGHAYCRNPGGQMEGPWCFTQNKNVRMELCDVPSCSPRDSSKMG
Nature of the assay: affinity ELISA on human ROR2, pH 6.0. The arrangement: unit not given here. A general note: An ELISA detects its analyte on a solid surface through an enzyme-linked reagent.
B1: the “Affinity ELISA, pH 6.0” value worked out at 0.468.

B2: the “Affinity ELISA, pH 6.0” value amounted to 0.56.

Turning to B3, the “Affinity ELISA, pH 6.0” value was 0.438.

Regarding B4, the “Affinity ELISA, pH 6.0” value was 1.1.

With B5, the “Affinity ELISA, pH 6.0” value came out at 0.66.

In the case of B6, the “Affinity ELISA, pH 6.0” value was determined as 1.87.

B7: the “Affinity ELISA, pH 6.0” value was found to be 0.69.

On to B8, for which the “Affinity ELISA, pH 6.0” value worked out at 0.489.

A further assay addresses T1, human ROR2 (receptor tyrosine …). Description: affinity ELISA on human ROR2, pH 7.4. The arrangement: unit not given here.
Turning to B9, the “Affinity ELISA, pH 7.4” value stood at 1.73.

Regarding B10, the “Affinity ELISA, pH 7.4” value was determined as 0.211.

Consider B11, for which the “Affinity ELISA, pH 7.4” value came out at 1.7.

As to B12, the “Affinity ELISA, pH 7.4” value is 0.232.

Turning to B13, the “Affinity ELISA, pH 7.4” value was found to be 0.391.

Turning to B14, the “Affinity ELISA, pH 7.4” value worked out at 0.353.

B15: the “Affinity ELISA, pH 7.4” value was 1.4.

As for B16, the “Affinity ELISA, pH 7.4” value was found to be 1.69.

On to B17, for which the “Affinity ELISA, pH 7.4” value worked out at 0.655.

Turning to B18, the “Affinity ELISA, pH 7.4” value was 0.185.

With B19, the “Affinity ELISA, pH 7.4” value came to 0.421.

With B20, the “Affinity ELISA, pH 7.4” value worked out at 1.7.

Consider B21, for which the “Affinity ELISA, pH 7.4” value came out at 1.41.

Take B22: the “Affinity ELISA, pH 7.4” value is 0.51.

On to B23, for which the “Affinity ELISA, pH 7.4” value was determined as 0.431.

Regarding B24, the “Affinity ELISA, pH 7.4” value was found to be 0.793.

Take B25: the “Affinity ELISA, pH 7.4” value was 0.433.

With B26, the “Affinity ELISA, pH 7.4” value turned out to be 0.379.

In the case of B27, the “Affinity ELISA, pH 7.4” value is 0.742.

For the molecule B28, the “Affinity ELISA, pH 7.4” value is 0.1.

As to B29, the “Affinity ELISA, pH 7.4” value came out at 0.157.

As to B30, the “Affinity ELISA, pH 7.4” value is 0.34.

Consider B31, for which the “Affinity ELISA, pH 7.4” value amounted to 0.276.

As for B32, the “Affinity ELISA, pH 7.4” value was 0.318.

With B33, the “Affinity ELISA, pH 7.4” value worked out at 1.69.

On to B34, for which the “Affinity ELISA, pH 7.4” value was determined as 1.4.

As for B35, the “Affinity ELISA, pH 7.4” value came to 0.222.

The next assay has the same target. Nature of the assay: affinity ELISA on human ROR2, pH 6.0. Also noted: unit not given here. The source holds these as a separate data set.
On to B9, for which the “Affinity ELISA, pH 6.0” value stood at 1.89.

With B10, the “Affinity ELISA, pH 6.0” value came to 1.24.

Turning to B11, the “Affinity ELISA, pH 6.0” value came out at 1.98.

Take B12: the “Affinity ELISA, pH 6.0” value turned out to be 0.626.

Consider B13, for which the “Affinity ELISA, pH 6.0” value is 0.903.

B14: the “Affinity ELISA, pH 6.0” value is 0.928.

With B15, the “Affinity ELISA, pH 6.0” value was 1.68.

B16: the “Affinity ELISA, pH 6.0” value is 1.67.

B17: the “Affinity ELISA, pH 6.0” value came to 0.794.

As for B18, the “Affinity ELISA, pH 6.0” value turned out to be 1.17.

Consider B19, for which the “Affinity ELISA, pH 6.0” value is 0.616.

For B20, the “Affinity ELISA, pH 6.0” value amounted to 1.75.

In the case of B21, the “Affinity ELISA, pH 6.0” value was determined as 1.46.

In the case of B22, the “Affinity ELISA, pH 6.0” value is 1.47.

B23: the “Affinity ELISA, pH 6.0” value turned out to be 0.995.

With B24, the “Affinity ELISA, pH 6.0” value stood at 1.08.

With B25, the “Affinity ELISA, pH 6.0” value is 0.911.

In the case of B26, the “Affinity ELISA, pH 6.0” value was determined as 0.509.

B27: the “Affinity ELISA, pH 6.0” value came out at 1.34.

B28: the “Affinity ELISA, pH 6.0” value worked out at 1.04.

As to B29, the “Affinity ELISA, pH 6.0” value stood at 0.54.

For the molecule B30, the “Affinity ELISA, pH 6.0” value turned out to be 0.87.

B31: the “Affinity ELISA, pH 6.0” value was found to be 0.799.

Regarding B32, the “Affinity ELISA, pH 6.0” value was 0.828.

For the molecule B33, the “Affinity ELISA, pH 6.0” value came to 1.83.

On to B34, for which the “Affinity ELISA, pH 6.0” value is 1.86.

With B35, the “Affinity ELISA, pH 6.0” value was determined as 1.11.

Another assay has the same target. Description: affinity ELISA on human ROR2, pH 7.4. Also noted: unit not given here. The source holds these as a separate data set.
For B1, the “Affinity ELISA, pH 7.4” value was determined as 0.133.

B2: the “Affinity ELISA, pH 7.4” value turned out to be 0.256.

Consider B3, for which the “Affinity ELISA, pH 7.4” value is 0.251.

Turning to B4, the “Affinity ELISA, pH 7.4” value amounted to 0.536.

B5: the “Affinity ELISA, pH 7.4” value was 0.268.

For B6, the “Affinity ELISA, pH 7.4” value is 0.118.

Consider B7, for which the “Affinity ELISA, pH 7.4” value came to 0.332.

Take B8: the “Affinity ELISA, pH 7.4” value worked out at 0.215.
